# [ ]: non-standard residue; d: D form. The star is where a group is joined. HSG = histaminyl-succinyl-glycine, O=C(CCC(=O)NCC(=O)*)NCCc1c[nH]cn1; DTPA = O=C(O)CN(CCN(CC(=O)O)CC(=O)O)CCN(CC(=O)O)CC(=O)*
# B1: hMN-14 Fab′: Fab′ of MN-14 in its humanized form, hMN-14 or labetuzumab (antibody, chains of the INN, looked up, V domains shown)
# VH: EVQLVESGGGVVQPGRSLRLSCSASGFDFTTYWMSWVRQAPGKGLEWIGEIHPDSSTINYAPSLKDRFTISRDNAKNTLFLQMDSLRPEDTGVYFCASLYFGFPWFAYWGQGTPVTVSS
# VL: DIQLTQSPSSLSASVGDRVTITCKASQDVGTSVAWYQQKPGKAPKLLIYWTSTRHTGVPSRFSGSGSGTDFTFTISSLQPEDIATYYCQQYSLYRSFGQGTKVEIK
# modifications: Fab′
# notes: Fab′ of MN-14 in its humanized form, hMN-14 or labetuzumab
# Legend:
# hMN-14×679 = experiment: Antibody binding of 18F-labeled IMP 272 by size exclusion HPLC, hMN-14×679
# Protocol: (§1) The peptide (16 μL 2 mM IMP 272, 48 μg) was labeled with ^18F and analyzed for antibody binding by size exclusion HPLC.
# [1] = Stability of purified 18F-labeled IMP 272 in water; assay type: physicochemical; conditions: 25° C., 40 min
# Protocol: The labeled peptide was purified by applying the labeled peptide solution onto a 1 cc (30 mg) WATERS® HLB column (Part #186001879) and washing with 300 μL water to remove unbound F-18. The peptide was eluted by washing the column with 2×100 μL 1:1 EtOH/H2O. The purified peptide was incubated in water at 25° C. and analyzed by reverse phase HPLC (not shown). […] After 40 min incubation in water about 17% of the ^18F was released from the peptide, while 83% was retained (not shown).
# hMN-14×734 = experiment: Antibody binding of 18F-labeled IMP 272 by size exclusion HPLC, hMN-14×734
# Protocol: as §1
# [2] = Stability of 18F-labeled IMP 272 in PBS; assay type: physicochemical; conditions: room temperature, 150 μL PBS, ~1 hr
# Protocol: F-18 Labeling of IMP 272—A 3 μL aliquot of the aluminum stock solution was placed in a REACTI-VIAL™ and mixed with 50 μL ^18F (as received) and 3 μL of the IMP 272 solution. The solution was heated in a heating block at 110° C. for 15 min and analyzed by reverse phase HPLC. […] An additional 10 μL of the IMP 272 solution was added to the reaction and it was heated again and analyzed by reverse phase HPLC (not shown). […] The remainder of the peptide solution was incubated at room temperature with 150 μL PBS for ˜1 hr and then examined by reverse phase HPLC.
# RIIα dimers (DDD) = RIIα dimers (DDD) (Homo sapiens, UniProt P13861); conditions: Alto et al. 2003; read-out: affinity / binding constant for RIIα dimers (DDD); cited from earlier work
# Sequence of RIIα dimers (DDD) (P13861 whole entry): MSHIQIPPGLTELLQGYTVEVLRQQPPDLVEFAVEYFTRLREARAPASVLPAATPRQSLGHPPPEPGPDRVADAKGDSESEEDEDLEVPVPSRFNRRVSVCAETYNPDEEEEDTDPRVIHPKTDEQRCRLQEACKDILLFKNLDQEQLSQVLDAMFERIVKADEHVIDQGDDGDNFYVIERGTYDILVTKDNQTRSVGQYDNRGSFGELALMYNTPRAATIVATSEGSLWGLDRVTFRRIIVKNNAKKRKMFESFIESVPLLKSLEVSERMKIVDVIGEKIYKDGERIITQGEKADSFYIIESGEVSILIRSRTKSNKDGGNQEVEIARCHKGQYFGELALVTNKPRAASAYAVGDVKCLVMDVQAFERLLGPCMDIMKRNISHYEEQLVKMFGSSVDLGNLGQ
# tumor cell invasion = experiment: Collagen-based invasion assay, cell line panel; set-up: species or system human
# Protocol: Collagen-based invasion assay—The assay was done using CHEMICON® Kit (#ECM551, MILLIPORE®, Billerica, Mass.). Tumor cells at 80% confluence and were serum-starved for 18 to 24 hours before the assay was used. Cells were harvested with 5 mol of 2 mmol/L EDTA/PBS per 100-mm dish and incubated at 37° C. for 5 to 15 minutes. Cells were collected into 10 to 20 mol of quenching medium (serum-free DMEM containing 5% BSA) to inactivate trypsin/EDTA from the harvesting buffer. Cells were pelleted, resuspended in quenching medium (1×10^6 cells/mol), and appropriate antibody Fabs were added to individual cell aliquots. Cell invasion potential was determined as follows. Baseline invasion and invasion in the presence of a chemoattractant (10% FBS) were measured after a 72-hour incubation period at 37° C. in a 5% CO2 incubator. The bottom side of the collagen-coated polycarbonate membrane insert of the invasion chamber was placed in 400 μL of cell stain for 20 minutes at room temperature and washed. The dye was extracted and transferred into a 96-well microtiter plate for colorimetric measurements (A560 nm).
# [3] = tested on: GW-39 human colonic carcinoma; experiment: GW-39 intrapulmonary micrometastasis model (GW-39iv), survival; assay type: in vivo, nude mice; conditions: cells pretreated with Fab′ 10 μg/mol, 100 μg i.v. 1 day after implantation; untreated 42 days
# Protocol: FIG. 7 illustrates an exemplary in vivo micrometastasis study. Top, immunohistochemistry of GW-39 tumor sections stained with a nonspecific antibody (left), MN-14 anti-CEACAM5 (middle), and MN-15 anti-CEACAM6 (right) and photographed at 100×. Bottom, survival of nude mice implanted with 30 μL of a 10% suspension of GW-39 human colonic cancer cells. Mice were implanted with cells that were […] for 30 minutes with MN-3-, MN-15-, or hMN-14-Fab′ (10 μg/mol). Mice also received a single 100 μg dose of the same Fab′ 1 day after cell implantation.
# In vivo therapy studies—Female athymic nude mice (6 to 8 weeks old) were purchased from TACONIC® (Germantown, N.Y.). Therapy studies were done using our CEACAM5+/CEACAM6+GW-39 intrapulmonary micrometastasis model, GW-39iv (Sharkey et al., J Natl Cancer Inst 1991, 83:627-32; Blumenthal et al., Cancer Res 1992, 52:6036-44). The GW-39 human colonic carcinoma has been maintained as a serially transplanted signet-ring cell cancer line since 1966 (Goldenberg et al., Transplantation 1966, 4:760-4). […] Body weight was monitored weekly and animal survival recorded. Results were analyzed by the Kaplan-Meier estimated survival curves, and significance was determined with the log-rank comparison of survival curves. Median survival time for each treatment group also was determined. […]
molecule,measurement,setting,value
DTPA-Gln-Ala-Lys(HSG)-D-Tyr-Lys(HSG)-NH2 ({DTPA}-QAK(HSG)[dY]K(HSG)-NH2; SMILES C[C@H](NC(=O)[C@H](CCC(N)=O)NC(=O)CN(CCN(CCN(CC(=O)O)CC(=O)O)CC(=O)O)CC(=O)O)C(=O)N[C@@H](CCCCNC(=O)CNC(=O)CCC(=O)NCCc1c[nH]cn1)C(=O)N[C@H](Cc1ccc(O)cc1)C(=O)N[C@@H](CCCCNC(=O)CNC(=O)CCC(=O)NCCc1c[nH]cn1)C(N)=O) [^18F-labeled IMP 272],binding to hMN-14×679,hMN-14×679,bound
same,^18F released from the peptide,[1],about 17%
same,^18F retained,[1],83%
same,binding to irrelevant bispecific antibody hMN-14×734,hMN-14×734,did not bind
same,^18F still attached to the peptide,[2],42%
same,^18F unbound,[2],58%
QIEYLAKQIVDNAIQQA [AKAP-IS],Kd,RIIα dimers (DDD),400 pM
B1,effect on tumor cell invasion,tumor cell invasion,had no effect on tumor cell invasion in most cell lines
same,median survival time,[3],49 days
